From publication PMC3657558

Target: CblC, full-length, His-tagged (UniProt Q9Y4U1)
Test: native gel or EMSA

Chain of UniProt Q9Y4U1 (Q9Y4U1 whole entry): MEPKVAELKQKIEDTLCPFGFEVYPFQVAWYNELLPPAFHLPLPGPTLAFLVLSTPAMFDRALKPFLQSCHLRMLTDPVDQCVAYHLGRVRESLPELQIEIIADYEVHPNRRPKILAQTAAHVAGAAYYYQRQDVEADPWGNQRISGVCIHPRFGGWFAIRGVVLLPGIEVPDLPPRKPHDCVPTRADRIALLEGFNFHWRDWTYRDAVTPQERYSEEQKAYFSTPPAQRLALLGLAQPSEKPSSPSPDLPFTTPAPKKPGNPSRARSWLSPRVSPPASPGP

“full-length CblD, N-terminal 6xHis-tagged (from UniProt Q9H3L0 39-296) (natural protein)” was tested, and the stoichiometry N was 1 CblC:CblD.
